Consider 1 substance from patent publication US20170362317A1.

In this assay the target is IL6 receptor on human multiple myeloma U266 cells (human) (UniProt P08887). The assay can be described thus: cell-based or functional assay.
IL6 receptor on human multiple myeloma U266 cells (human), sequence (P08887 20-468): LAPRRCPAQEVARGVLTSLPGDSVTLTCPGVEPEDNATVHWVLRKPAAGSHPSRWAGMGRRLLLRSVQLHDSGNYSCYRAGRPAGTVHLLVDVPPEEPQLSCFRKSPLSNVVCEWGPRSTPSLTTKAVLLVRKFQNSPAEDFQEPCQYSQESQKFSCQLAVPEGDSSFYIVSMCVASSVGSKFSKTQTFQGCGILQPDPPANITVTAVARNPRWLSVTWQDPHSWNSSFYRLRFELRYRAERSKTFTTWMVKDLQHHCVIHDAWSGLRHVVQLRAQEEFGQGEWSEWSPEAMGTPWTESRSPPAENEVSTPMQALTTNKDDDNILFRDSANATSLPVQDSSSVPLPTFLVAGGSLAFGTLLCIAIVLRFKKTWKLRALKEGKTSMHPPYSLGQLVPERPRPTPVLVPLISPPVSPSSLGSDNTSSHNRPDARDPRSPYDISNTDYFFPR

As for “Actemra, an anti-IL6 receptor humanized antibody”, the inhibition percentage of control of STAT3 phosphorylation in U266 cells, antibody at 0.05 µg/ml amounted to 0% and the inhibition percentage of control of STAT3 phosphorylation in U266 cells, antibody at 0.5 µg/ml came to 17%.
